Laboratory results: patent publication US20230174653A1
Like-named read-outs stand apart in the source and are kept apart here. Values belong to the molecule of their own block, whether it stands above or below them.

Tests used:
[1] = molecular target: T1, B7-H3 (CD276), endogenous on tumor cells (LM7, A549, U373) (UniProt Q5ZPR3); assay: cell-based or functional assay
T1 sequence (looked up): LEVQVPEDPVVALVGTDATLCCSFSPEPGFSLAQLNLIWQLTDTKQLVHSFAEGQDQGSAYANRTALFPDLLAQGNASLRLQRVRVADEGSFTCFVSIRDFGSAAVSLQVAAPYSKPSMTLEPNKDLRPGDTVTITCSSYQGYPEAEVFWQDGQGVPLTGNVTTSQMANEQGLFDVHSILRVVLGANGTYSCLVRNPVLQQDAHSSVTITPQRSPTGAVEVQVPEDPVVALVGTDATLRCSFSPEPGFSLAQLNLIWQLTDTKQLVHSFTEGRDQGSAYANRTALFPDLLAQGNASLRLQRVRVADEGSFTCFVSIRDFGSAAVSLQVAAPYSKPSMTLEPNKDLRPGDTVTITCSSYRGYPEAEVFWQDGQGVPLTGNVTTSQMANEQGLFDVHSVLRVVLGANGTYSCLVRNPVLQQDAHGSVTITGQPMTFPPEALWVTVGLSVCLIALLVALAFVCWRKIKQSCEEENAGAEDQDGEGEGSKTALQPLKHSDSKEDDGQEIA

[2] = molecular target: T1, B7-H3 (CD276), endogenous on tumor cells (LM7, A549, U373); assay: cell-based or functional assay; remark: listed apart in the source

cytolysis of LM7 tumor cells, impedance assay (xCelligence), 1st stimulation, 0.5:1 T-cell to tumor cell ratio [1]: 100%
Molecule: CD8α/4-1BB B7-H3-CAR (second generation B7-H3-CAR with MGA271-derived scFv, CD8α hinge/transmembrane domain, 4-1BB costimulatory domain and CD3ζ), expressed on human T cells

cytolysis of LM7 tumor cells, impedance assay (xCelligence), 1st stimulation [1]: 100% | cytolysis of LM7 tumor cells, impedance assay (xCelligence), 1st stimulation, 0.5:1 T-cell to tumor cell ratio [1]: 100%
Molecule: CD8α/CD28 B7-H3-CAR (second generation B7-H3-CAR with MGA271-derived scFv, CD8α hinge/transmembrane domain, CD28 costimulatory domain and CD3ζ), expressed on human T cells

cytolysis of LM7 tumor cells, impedance assay (xCelligence), 1st stimulation [1]: 100%
Molecule: CD8α/CD28.4-1BB third generation (3G) B7-H3-CAR (4-1BB signaling domain inserted into the CD8α/CD28-CAR), expressed on human T cells

cytolysis of LM7 tumor cells, impedance assay (xCelligence), 1st stimulation, 0.5:1 T-cell to tumor cell ratio [2]: 100%
B1: CD28/CD28 B7-H3-CAR (second generation B7-H3-CAR with MGA271-derived scFv, CD28 hinge/transmembrane domain, CD28 costimulatory domain and CD3ζ), expressed on … (protein)
chain: EVQLVESGGGLVQPGGSLRLSCAASGFTFSSFGMHWVRQAPGKGLEWVAYISSDSSAIYYADTVKGRFTISRDNAKNSLYLQMNSLRDEDTAVYYCGRGRENIYYGSRLDYWGQGTTVTVSSGGGGSGGGGSGGGGSDIQLTQSPSFLSASVGDRVTITCKASQNVDTNVAWYQQKPGKAPKALIYSASYRYSGVPSRFSGSGSGTDFTLTISSLQPEDFATYYCQQYNNYPFTFGQGTKLEIKIEVMYPPPYLDNEKSNGTIIHVKGKHLCPSPLFPGPSKPFWVLVVVGGVLACYSLLVTVAFIIFWVRSKRSRLLHSDYMNMTPRRPGPTRKHYQPYAPPRDFAAYRSRVKFSRSADAPAYQQGQNQLYNELNLGRREEYDVLDKRRGRDPEMGGKPRRKNPQEGLYNELQKDKMAEAYSEIGMKGERRRGKGHDGLYQGLSTATKDTYDALHMQALPPR

cytolysis of LM7 tumor cells, impedance assay (xCelligence), 1st stimulation, 0.5:1 T-cell to tumor cell ratio [2]: 100%
B2: CD28/4-1BB B7-H3-CAR (second generation B7-H3-CAR with MGA271-derived scFv, CD28 hinge/transmembrane domain, 4-1BB costimulatory domain and CD3ζ), expressed on … (protein)
chain: EVQLVESGGGLVQPGGSLRLSCAASGFTFSSFGMHWVRQAPGKGLEWVAYISSDSSAIYYADTVKGRFTISRDNAKNSLYLQMNSLRDEDTAVYYCGRGRENIYYGSRLDYWGQGTTVTVSSGGGGSGGGGSGGGGSDIQLTQSPSFLSASVGDRVTITCKASQNVDTNVAWYQQKPGKAPKALIYSASYRYSGVPSRFSGSGSGTDFTLTISSLQPEDFATYYCQQYNNYPFTFGQGTKLEIKIEVMYPPPYLDNEKSNGTIIHVKGKHLCPSPLFPGPSKPFWVLVVVGGVLACYSLLVTVAFIIFWVKRGRKKLLYIFKQPFMRPVQTTQEEDGCSCRFPEEEEGGCELRVKFSRSADAPAYQQGQNQLYNELNLGRREEYDVLDKRRGRDPEMGGKPRRKNPQEGLYNELQKDKMAEAYSEIGMKGERRRGKGHDGLYQGLSTATKDTYDALHMQALPPR
